Measurements reported in paper PMC7954794, “Protein context shapes the specificity of SH3 domain-mediated interactions in vivo” (Nature Communications, 2021).

Tested on: PPIs identified as affected by the SH3 domain deletions
Test: Liquid DHFR-PCA low-throughput validation of PPIs affected by SH3 deletion (Fig. S1D-E)
Type: cell-based, Saccharomyces cerevisiae
Details: label = prey, liquid DHFR-PCA, prey _1 = lost, _2 = gained in screen
How it was run: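 Yeast diploids from DHFR-PCA mating grown 48 h in synthetic complete MSG medium pH 6.0 with NAT and HPH, normalized to 1 OD and diluted to 0.1 OD in liquid PCA selection medium. Growth followed by OD every 15 min for 72 h at 30 °C.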

B1: YCR002C_1 (protein, UniProt P25342 1-322, looked up)
Cell division control protein …: MDPLSSVQPASYVGFDTITNQIEHRLLKKGFQFNIMVVGQSGLGKSTLINTLFASHLIDSATGDDISALPVTKTTEMKISTHTLVEDRVRLNINVIDTPGFGDFIDNSKAWEPIVKYIKEQHSQYLRKELTAQRERFITDTRVHAILYFLQPNGKELSRLDVEALKRLTEIANVIPVIGKSDTLTLDERTEFRELIQNEFEKYNFKIYPYDSEELTDEELELNRSVRSIIPFAVVGSENEIEINGETFRGRKTRWSAINVEDINQCDFVYLREFLIRTHLQDLIETTSYIHYEGFRARQLIALKENANSRSSAHMSSNAIQR
Question: What does the source list for B1?
Answer: Ratio (Deletedscore / WTscore) (bait BEM1-2): 0.5157; Ratio (Deletedscore / WTscore) (bait BOI1): 0.9522; Ratio (Deletedscore / WTscore) (bait NBP2): 0.7856; Ratio (Deletedscore / WTscore) (bait RVS167): 0.8283

B2: YJL151C_2 (protein, UniProt P14359 1-133, looked up)
Protein SNA3: MDRDHINDHDHRMSYSINKDDLLLMVLAVFIPPVAVWKRKGMFNRDTLLNLLLFLLLFFPAIIHACYVVYETSSERSYDLSRRHATAPAVDRDLEAHPAEESQAQPPAYDEDDEAGADVPLMDNKQQLSSGRT
Question: B2 was tested. Which “Ratio (Deletedscore / WTscore)” value (bait ABP1) did it give?
Answer: 1.204

Question: And the “Ratio (Deletedscore / WTscore)” value (bait BZZ1-2)?
Answer: 1.485

B3: YDL146W_1 (protein, UniProt Q12342 1-491, looked up)
Protein LDB17: MILDPLSPNIENHTQDEIIEFWEKTESIANIPKENLDESHVNSSLVAYLKFATDSYKVFINTDRDLYRMSLILLESSLFEFKKEFCLSKLQSLLNIDLLEMNMKFIIVYILLCEAKKNVYSLEIMLKFQGFTVFYNTLYTQFAYLSKYGKERTVASKHQYNSNNSSTGTSLDSLDRSLTDIDLGIIDEMKQISTVLMDLLFQIMKYCKCVIANLQIVDDFFVYYMMESMRSDTMDDMFNNAEFKLLLALNEQYMMFAKEYDIENKVYKYLINGSVSRCFTELLLLKFNRASDPPLQIMMCKIIYLILTPRGDYSPMNFFYTNDLRVLIDVLIRELQNISEDEEVLRNTLLRVLIPLLKNTQLSKTHYRKDDLNKLLNYLSTLDNICVDSPALHEHQVTVALSRKCLQQIPWLETPSTPSDGGSSVSSNNTSRNSSIVALGTPDNQNILARKGHLYSNRELDVSAESLTKRKAKAPPPPPPPPPSRKCGTPK
Question: Which results are given for B3?
Answer: Ratio (Deletedscore / WTscore) (bait BZZ1-1): 0.5572; Ratio (Deletedscore / WTscore) (bait BZZ1-2): 0.7122; Ratio (Deletedscore / WTscore) (bait LSB3): 0.6902

B4: YLR314C_1 (protein, UniProt P32457 2-520, looked up)
Cell division control protein …: SLKEEQVSIKQDPEQEERQHDQFNDVQIKQESQDHDGVDSQYTNGTQNDDSERFEAAESDVKVEPGLGMGITSSQSEKGQVLPDQPEIKFIRRQINGYVGFANLPKQWHRRSIKNGFSFNLLCVGPDGIGKTTLMKTLFNNDDIEANLVKDYEEELANDQEEEEGQGEGHENQSQEQRHKVKIKSYESVIEENGVKLNLNVIDTEGFGDFLNNDQKSWDPIIKEIDSRFDQYLDAENKINRHSINDKRIHACLYFIEPTGHYLKPLDLKFMQSVYEKCNLIPVIAKSDILTDEEILSFKKTIMNQLIQSNIELFKPPIYSNDDAENSHLSERLFSSLPYAVIGSNDIVENYSGNQVRGRSYPWGVIEVDNDNHSDFNLLKNLLIKQFMEELKERTSKILYENYRSSKLAKLGIKQDNSVFKEFDPISKQQEEKTLHEAKLAKLEIEMKTVFQQKVSEKEKKLQKSETELFARHKEMKEKLTKQLKALEDKKKQLELSINSASPNVNHSPVPTKKKGFLR
Question: B4 was tested. Which “Ratio (Deletedscore / WTscore)” value (bait BEM1-2) did it give?
Answer: 0.9934

Question: What about the “Ratio (Deletedscore / WTscore)” value (bait NBP2) of the same molecule?
Answer: 0.9977

B5: YER114C_1 (protein, UniProt P39969 1-1040, looked up)
BEM1-interacting protein 2: MSNDREVPTLSQLNTTVSRDKDVSDTLSPDFDSKGSATGRDGGNFPMYIAINEYFKRMEDELDMKPGDKIKVITDDEEYKDGWYFGRNLRTNEEGLYPVVFTQKITVEKAPTLMRAKSTKRIYSPLTNEDPLLSSTFISENDSNSELPTPQPIETAASISRTANGKIERNLSLKNTMSDIDNALLEFKDDSIGPPDRFINSGRDEEHSITHETILSATDGLDVVESNSKPTTSSSTGFLNGDLENQATLINGIDTTKLNPVEAEFWSPEEITAYFIMEGYDVQSASRFQKHKISGKILLELELVHLKELDINSFGTRFEIFKEIEKIKEAIRTNGRSLNRASKTNNANIYNQLMPPANVDQRASYRGHVRKTSQSLEDLPSQQNFIPTPRNTRNSSASKHRPKSLVFDSQEANANIAPDVQIPQVVEEMAGNENLFVSPRRAPKPPSYPSPAQPPKSPLLNNTRTSPSPAQLYSWQSPTLSFSGPKRTSYIDQYSSSDSNFNSRSALPKNNQGGGKALSPIPSPTRNSVRNEDSEGKLTSSSKRNSVPYYGYAPESSSDRKSSCSSHEEEQFQETMNTFERPTSSIYADGSTIASISNDKLAHEKEGKKKPTRHSSSLSSKSKSDSRRNSSLKRSSSASRTSSFKKSSFMLSPFRQQFTDNAARSSSPEENPITSMPSEKNSSPIVDKKSSKKSRSKRRSVSAKEAEIFTETVKDDKNKRSASEAIKGETLKGKSLRQMTARPVAKKKQTSAFIEGLRSISVKEAMKDADFSGWMSKKGSGAMSTWKTRFFTLHGTRLSYFSSTTDTRERGLIDITAHRVVPAKEDDKLVSLYAASTGKGRYCFKLLPPQPGSKKGLTFTQPRTHYFAVDNKEEMRGWMAALIKTTIDIDTSVPIISSYTTPTVSLSKAQEMLAEAREETKLREQQMLENEEDEDQFLWDQQQLQQQQHDNNQGQADRTISASTQRTSDEDNTISTPNLSSANNTTIGSNGFSSPFLLASGLLSPGVARNSSMRGTEKKGKFSTEEDYFGDNSKHKTDKI
Question: Which “Ratio (Deletedscore / WTscore)” value (bait BEM1-2) does the source give for B5 here?
Answer: 0.3794

B6: YJR076C_1 (protein, UniProt P32458 2-415, looked up)
Cell division control protein …: SGIIDASSALRKRKHLKRGITFTVMIVGQSGSGRSTFINTLCGQQVVDTSTTILLPTDTSTEIDLQLREETVELEDDEGVKIQLNIIDTPGFGDSLDNSPSFEIISDYIRHQYDEILLEESRVRRNPRFKDGRVHCCLYLINPTGHGLKEIDVEFIRQLGSLVNIIPVISKSDSLTRDELKLNKKLIMEDIDRWNLPIYNFPFDEDEISDEDYETNMYLRTLLPFAIIGSNEVYEMGGDVGTIRGRKYPWGILDVEDSSISDFVILRNALLISHLHDLKNYTHEILYERYRTEALSGESVAAESIRPNLTKLNGSSSSSTTTRRNTNPFKQSNNINNDVLNPASDMHGQSTGENNETYMTREEQIRLEEERLKAFEERVQQELLLKRQELLQREKELREIEARLEKEAKIKQEE
Question: For B6, which “Ratio (Deletedscore / WTscore)” value (bait BEM1-2) is on record?
Answer: 0.6782

Question: And the “Ratio (Deletedscore / WTscore)” value (bait MYO3)?
Answer: 0.8182

Question: What about the “Ratio (Deletedscore / WTscore)” value (bait MYO5) of the same molecule?
Answer: 0.9436

Question: What about the “Ratio (Deletedscore / WTscore)” value (bait RVS167) of the same molecule?
Answer: 1.148

B7: YDR166C_1 (protein, UniProt P89102 1-971, looked up)
Exocyst complex component SEC5: MDRFQIGDEQLLRFYQLKTINPTHSWAQDSSKLNNEEATSNELGVETSFDILKDFKYGNQISIDKESRAYLNDESLSYIRDPLNGQEMSKELQHLPNDSMRLNYLVNSKQFNVKAFLRDMHKQDSFNDLNNSLDRLDSDIQDQSIHLKQLVGKNFTKYVKIKNKLDQIYKEFDEKTNEKNQCDSPKENQINVESLNKKVDEVIRTTTFKLKPLMDNYQKILNYQATKKFIELNKFYFNLPKSLKRCLTNNDFNEFIIEYSKGLTLRRRFNQSSDASQSLVIKRIWTQIENLLVTYKDLIWNSLINSNFNIDQPQETILSLFSKLLNLENFINNNQRESESGNKNTTSSSNENPILRWMSIKMNGFQNELNELSGHMISKIIHSQRLILQNNTNQDKSQGCVELSYYLKINQLFQIISDTGKDSEGLKSTVEPNKVNTISGTSYLNLNCQPSSQGLTDSPTIIEMWLLILKYINDLWKICDQFIEFWEHIEKFLDGTYQNSIINEKRKENILIGDSNIIESYQKSLILKEEQINEVRLKGEEFITSVSQNLISFFTSSQSSLPSSLKDSTGDITRSNKDSGSPLDYGFIPPNCNGLSCLRYLPKIVEPILKFSTELAQLNITTNGITICRNTLSTIINRCVGAISSTKLRDISNFYQLENWQVYETVTFSSKSQDSSKNLTFEYGVTQFPEIVTSFQEVSIKTTRDLLFAYEKLPIINGISVVSYPSKQLLTGIEIQQIISMEAVLEAILKNAAKDKDNPRNSHTILTLTNLQYFRECAFPNILQYFDDAFEWNLASKNLELFSLLSKMESSIFGNYLSDLKINLRDTLEEKFHEINWPMYTSNSFRVGDYIIEALMILIVVHSECFRIGPQLIHKILIETQIFIARYLFEAFKPYVGNLSNDGSLQIIVDLEFFQKVMGPLLEKDTEATLRACLQNCFQNDTNRLQKCINEINPIVSANLKRTAIQFAAFS
Question: With B7 as the molecule, how does the “Ratio (Deletedscore / WTscore)” value (bait BEM1-2) read?
Answer: 0.5345

Question: And the “Ratio (Deletedscore / WTscore)” value (bait BOI2)?
Answer: 0.7084
